Test system: Escherichia coli TOP10
Experiment: shrunken log2 fold change of peptide-encoding DNA abundance (4.5 h post-induction vs induction); higher = less antimicrobial activity (less host growth inhibition)
Conditions: time post-induction: 4.5 h; library: site-saturation at positions 5, 18, 19, 20
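Also: peptides expressed intracellularly from a pBAD plasmid library in pooled LB shake-flask culture, induced with 0.3% L-arabinose, DNA abundance read by NGS, three biological replicates, DESeq2 with apeglm shrinkage.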

Row | Sequence | shrunken log2 fold change
1 | RRIRSRPPRLPRPRPRPAESPRP | -0.04
2 | RRIRLRPPRLPRPRPRPIVCPRP | 0.0348
3 | RRIRHRPPRLPRPRPRPYQRPRP | 0.0916
4 | RRIRYRPPRLPRPRPRPRHHPRP | -0.846
5 | RRIRIRPPRLPRPRPRPCRWPRP | 0.0527
6 | RRIRVRPPRLPRPRPRPKVSPRP | -0.0522
7 | RRIRPRPPRLPRPRPRPNVGPRP | 0.0392
8 | RRIRGRPPRLPRPRPRPDPPPRP | 1.14
9 | RRIRMRPPRLPRPRPRPESCPRP | 3.68
10 | RRIRCRPPRLPRPRPRPHYTPRP | -0.311
11 | RRIRYRPPRLPRPRPRPCWPPRP | 0.0499
12 | RRIRFRPPRLPRPRPRPVENPRP | -0.109
13 | RRIRMRPPRLPRPRPRPNLYPRP | -0.00588
14 | RRIRCRPPRLPRPRPRPFEHPRP | -0.792
15 | RRIRRRPPRLPRPRPRPMLYPRP | -0.0417
16 | RRIRTRPPRLPRPRPRPPSCPRP | 0.35
17 | RRIRRRPPRLPRPRPRPCRKPRP | -0.444
18 | RRIRVRPPRLPRPRPRPWAIPRP | -0.0122
19 | RRIRYRPPRLPRPRPRPMCEPRP | -0.283
20 | RRIRWRPPRLPRPRPRPQRFPRP | 0.206
21 | RRIRLRPPRLPRPRPRPGMYPRP | -0.115
22 | RRIRQRPPRLPRPRPRPLAHPRP | -0.0319
23 | RRIRKRPPRLPRPRPRPERKPRP | 0.582

Row | Sequence | shrunken log2 fold change
24 | RRIRYRPPRLPRPRPRPEQGPRP | -0.00197
25 | RRIRTRPPRLPRPRPRPAVDPRP | -0.209
26 | RRIRERPPRLPRPRPRPHSHPRP | -0.269
27 | RRIRSRPPRLPRPRPRPGYLPRP | -0.388
28 | RRIRWRPPRLPRPRPRPGKVPRP | -0.132
29 | RRIRYRPPRLPRPRPRPFAMPRP | -0.844
30 | RRIRHRPPRLPRPRPRPIDIPRP | -0.326
31 | RRIRPRPPRLPRPRPRPAVTPRP | 0.0942
32 | RRIRGRPPRLPRPRPRPAYIPRP | -0.156
33 | RRIRRRPPRLPRPRPRPQVHPRP | 0.148
34 | RRIRDRPPRLPRPRPRPNHSPRP | -0.33
35 | RRIRMRPPRLPRPRPRPDQFPRP | -0.00541
36 | RRIRQRPPRLPRPRPRPVWRPRP | 0.205
37 | RRIRHRPPRLPRPRPRPHVNPRP | -0.183
38 | RRIRRRPPRLPRPRPRPKQWPRP | 0.294
39 | RRIRNRPPRLPRPRPRPARVPRP | 0.574
40 | RRIRQRPPRLPRPRPRPWWAPRP | -0.014
41 | RRIRRRPPRLPRPRPRPVHYPRP | 0.0593
42 | RRIRERPPRLPRPRPRPTDQPRP | -0.127
43 | RRIRPRPPRLPRPRPRPVLEPRP | -0.147
44 | RRIRIRPPRLPRPRPRPECRPRP | 0.0513
45 | RRIRFRPPRLPRPRPRPSVQPRP | -0.241
46 | RRIRDRPPRLPRPRPRPHEIPRP | -0.0115

Row | Sequence | shrunken log2 fold change
47 | RRIRVRPPRLPRPRPRPNLMPRP | -0.153
48 | RRIRIRPPRLPRPRPRPGSCPRP | 0.968
49 | RRIRQRPPRLPRPRPRPLSPPRP | -0.109
50 | RRIRWRPPRLPRPRPRPLCVPRP | 0.0447
51 | RRIRIRPPRLPRPRPRPCAWPRP | -0.0154
52 | RRIRIRPPRLPRPRPRPEVHPRP | -0.102
53 | RRIRQRPPRLPRPRPRPWDWPRP | 0.0372
54 | RRIRMRPPRLPRPRPRPRCQPRP | 0.00313
55 | RRIRERPPRLPRPRPRPVPDPRP | 0.268
56 | RRIRQRPPRLPRPRPRPHERPRP | 0.158
57 | RRIRNRPPRLPRPRPRPWMKPRP | -0.0173
58 | RRIRRRPPRLPRPRPRPHEHPRP | -0.153
59 | RRIRFRPPRLPRPRPRPRWLPRP | 0.269
60 | RRIRRRPPRLPRPRPRPYHPPRP | -0.34
61 | RRIRCRPPRLPRPRPRPYMAPRP | -0.283
62 | RRIRRRPPRLPRPRPRPHFEPRP | -0.211
63 | RRIRTRPPRLPRPRPRPLYDPRP | -0.824
64 | RRIRWRPPRLPRPRPRPSHMPRP | -0.668
65 | RRIRRRPPRLPRPRPRPNWHPRP | 0.151
66 | RRIRHRPPRLPRPRPRPQNKPRP | -0.654
67 | RRIRFRPPRLPRPRPRPKQCPRP | -0.0712
68 | RRIRCRPPRLPRPRPRPKMVPRP | -0.0546
69 | RRIRARPPRLPRPRPRPCDCPRP | -0.21

Row | Sequence | shrunken log2 fold change
70 | RRIRHRPPRLPRPRPRPEGVPRP | 0.0659
71 | RRIRCRPPRLPRPRPRPEPLPRP | 0.438
72 | RRIRARPPRLPRPRPRPPEVPRP | 1.17
73 | RRIRNRPPRLPRPRPRPGDSPRP | -0.0564
74 | RRIRKRPPRLPRPRPRPFARPRP | 0.187
75 | RRIRCRPPRLPRPRPRPFKMPRP | -0.854
76 | RRIRTRPPRLPRPRPRPVHCPRP | 0.0307
77 | RRIRPRPPRLPRPRPRPHRNPRP | -0.11
78 | RRIRQRPPRLPRPRPRPLYGPRP | 0.0686
79 | RRIRYRPPRLPRPRPRPNTQPRP | -0.17
80 | RRIRMRPPRLPRPRPRPLSSPRP | -0.0576
81 | RRIRLRPPRLPRPRPRPMHWPRP | 0.0928
82 | RRIRARPPRLPRPRPRPSRPPRP | 0.612
83 | RRIRNRPPRLPRPRPRPAGHPRP | 0.133
84 | RRIRERPPRLPRPRPRPFGDPRP | -0.0107
85 | RRIRARPPRLPRPRPRPDDWPRP | 1.12
86 | RRIRQRPPRLPRPRPRPVFIPRP | -0.288
87 | RRIRPRPPRLPRPRPRPDAEPRP | 0.496
88 | RRIRWRPPRLPRPRPRPHVKPRP | -0.439
89 | RRIRRRPPRLPRPRPRPMGYPRP | 0.0381
90 | RRIRERPPRLPRPRPRPPKVPRP | -0.0931
91 | RRIRGRPPRLPRPRPRPEGRPRP | 1.39
